Data reported in US20250270319A1 (Alector, published 2025).
Positions count from the first letter of the chain named.

B1: 6C7H54 IgG2 (antibody)
heavy: EVQLVESGGGLVQPGGSLRLSCAGSGFTFSNYEMNWVRQAPGKGLEWVAEIRLKSNNYVTNYAASVKGRFTISRDDSKNSVYLQMNSLKTEDTGVYYCTRAGYYVPFAYWGQGTLVTVSSASTKGPSVFPLAPCSRSTSESTAALGCLVKDYFPEPVTVSWNSGALTSGVHTFPAVLQSSGLYSLSSVVTVPSSNFGTQTYTCNVDHKPSNTKVDKTVERKCCVECPPCPAPPVAGPSVFLFPPKPKDTLMISRTPEVTCVVVDVSHEDPEVQFNWYVDGVEVHNAKTKPREEQFNSTFRVVSVLTVVHQDWLNGKEYKCKVSNKGLPAPIEKTISKTKGQPREPQVYTLPPSREEMTKNQVSLTCLVKGFYPSDIAVEWESNGQPENNYKTTPPMLDSDGSFFLYSKLTVDKSRWQQGNVFSCSVMHEALHNHYTQKSLSLSPGK
light: QLMLTQSPSASASLGASVKLTCTLSSQHSTYTIEWYQQQPGKGPRYLMELKKEGSHSTGDGIPDRFSGSSSGAERYLTISSLQSEDEADYYCGVGHTIKEQFVYVFGGGTKLTVLGQPKAAPSVTLFPPSSEELQANKATLVCLISDFYPGAVTVAWKADSSPVKAGVETTTPSKQSNNKYAASSYLSLTPEQWKSHRSYSCQVTHEGSTVEKTVAPTECS
B2: 6C7H8 IgG1 LALAPS (antibody, V domains shown)
VH: EVQLVESGGGLVQPGGSLRLSCAGSGFTFSNYCMNWVRQAPGKGLEWVAEIRLKSNNYVTNYAASVKGRFTISRDDSKNSVYLQMNSLKTEDTGVYYCTRAGYYVPFAYWGQGTLVTVSS
VL: QLVLTQSPSASASLGASVKLTCTLSSQHSTYTIEWYQQQPEKGPRYLMELKKEGSHSTGDGIPDRFSGSSSGAERYLTISSLQSEDEADYYCGVGDTIKEQFVYVFGGGTKLTVL
B3: 6C7H10 IgG2 (antibody)
chain 1: B1 heavy with G24A, N31E, E33A, A49G
chain 2: B2 VL
B4: 6C7H10 IgG1 LALAPS (antibody)
chain 1: not shown
chain 2: B2 VL
B5: 6C7H10 IgG1 SELF (antibody)
chain 1: not shown
chain 2: B2 VL
B6: 6C7H54 IgG1 PS (antibody)
chain 1: not shown
chain 2: B2 VL with V3M, E41G, D96H
B7: anti-CD33 antibody 6C7H10 (antibody, IgG1, V domains shown)
VH: B2 VH with G24A, N31E, C33A, A49G
VL: B2 VL
notes: VH/VL only; also called 6C7H10 IgG1
B8: anti-CD33 antibody 6C7H1 (antibody, V domains shown)
VH: B2 VH with G24A, A49G, V81L, G94A, T99A, A101D
VL: B2 VL with Y36H, E49K, E53D
notes: Humanized 6C7; VH/VL only
B9: anti-CD33 antibody 6C7H4 (antibody, V domains shown)
VH: B2 VH with V81L, G94A, A101D
VL: B2 VL with E53D
notes: Humanized 6C7; VH/VL only
B10: anti-CD33 antibody 6C7H7 (antibody, V domains shown)
VH: B2 VH with V81L, G94A, A101D
VL: B2 VL with V18A, L47V, E53D, L82I, Y91I, L112V
notes: Humanized 6C7; VH/VL only
B11: anti-CD33 antibody 6C7H6 (antibody, V domains shown)
VH: B2 VH with G24A, A49G, V81L, G94A, T99A, A101D
VL: B2 VL with V18A, L47V, E53D, L82I, Y91I, L112V
notes: Humanized 6C7; VH/VL only
B12: anti-CD33 antibody 6C7H2 (antibody, V domains shown)
VH: B2 VH with A101D
VL: B2 VL with Y36H, E49K, E53D
notes: Humanized 6C7; VH/VL only
B13: anti-CD33 antibody 6C7H3 (antibody, V domains shown)
VH: B2 VH with G24A, A49G, V81L, G94A, T99A, A101D
VL: B2 VL with E53D
notes: Humanized 6C7; VH/VL only
B14: anti-CD33 antibody 6C7H53 (antibody, V domains shown)
VH: B2 VH with C33E
VL: B2 VL with L2P, D96V
notes: VH/VL only
B15: anti-CD33 antibody 6C7H13 (antibody, V domains shown)
VH: B2 VH with C33F
VL: B2 VL
notes: VH/VL only
B16: anti-CD33 antibody 6C7H22 (antibody, V domains shown)
VH: B2 VH with C33T
VL: B2 VL
notes: VH/VL only
B17: anti-CD33 antibody 6C7H30 (antibody, V domains shown)
VH: B2 VH with C33W
VL: B2 VL
notes: VH/VL only
B18: anti-CD33 antibody 6C7H19 (antibody, V domains shown)
VH: B2 VH with C33R
VL: B2 VL
notes: VH/VL only

biological target: T1, human CD33 on primary human dendritic cells (human, UniProt P20138 18-364); assay: cell-based or functional assay
T1 sequence (P20138 18-364): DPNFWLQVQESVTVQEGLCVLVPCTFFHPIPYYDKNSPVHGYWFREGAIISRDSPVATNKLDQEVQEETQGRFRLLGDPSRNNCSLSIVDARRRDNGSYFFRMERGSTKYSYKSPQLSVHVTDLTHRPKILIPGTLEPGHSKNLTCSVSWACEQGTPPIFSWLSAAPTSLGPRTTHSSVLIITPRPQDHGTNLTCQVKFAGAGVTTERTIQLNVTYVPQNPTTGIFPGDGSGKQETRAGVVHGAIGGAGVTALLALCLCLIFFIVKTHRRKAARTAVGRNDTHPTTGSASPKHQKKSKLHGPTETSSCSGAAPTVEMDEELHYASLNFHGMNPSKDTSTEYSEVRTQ

Row | Binder | Fold change in potency from IgG1 | Maximal downregulation (% CD33 remaining) | Receptor downregulation, (pM, EC50)
1 | B1 | 1.2 fold | 14.3 % CD33 remaining | 25.3 pM
2 | B2 | 0.93 fold | 67.4 % CD33 remaining | 83.7 pM
3 | B3 | 1.01 fold | 24.2 % CD33 remaining | 772 pM
4 | B4 | 0.58 fold | 62.3 % CD33 remaining | 1350 pM
5 | B5 | 25.8 fold | 19.6 % CD33 remaining | 30.1 pM
6 | B6 | 2.4 fold | 23.9 % CD33 remaining | 12.6 pM
7 | B7 | – | 21.2 % CD33 remaining | 778 pM

biological target: T1, human CD33 on primary human dendritic …; assay: flow cytometry on primary human dendritic cells, antibody dilutions, fluorescent anti-human IgG secondary
Method: The 7 humanized anti-CD33 antibodies of 6C7 were evaluated for binding to primary dendritic cells by flow cytometry, and binding was compared to that of an anti-CD33 6C7 chimeric antibody that contained the variable heavy chain sequence and the variable light chain sequence of anti-CD33 antibody 6C7. Monocytes were isolated from blood from healthy human donors using the RosetteSep™ monocyte isolation antibody cocktail (StemCell Technologies). The isolated monocytes were differentiated into dendritic cells with 100 ng/mL GM-CSF and 100 ng/mL IL-4 (Peprotech). Dendritic cells were incubated with dilutions of the anti-CD33 antibodies for 30 minutes on ice in the dark, followed by a 30-minute incubation with a fluorescently-conjugated anti-human IgG secondary antibody. Cells were washed twice in FACS buffer (PBS+2% FBS, 2 mM EDTA), and flow cytometry was performed on a BD FACS Canto. Data were analyzed using FlowJo software (Ashland, OR).

Row | Binder | binding result
8 | B8 | no binding (tested: about 1.2 ug/mL)
9 | B9 | binds
10 | B10 | binds
11 | B11 | binds
12 | B12 | no binding (tested: about 2 ug/mL)
13 | B13 | binds

biological target: T2, recombinant human CD33 protein (Sino Biologicals) (human, UniProt P20138 18-259); assay: ELISA, plate coated with recombinant CD33
T2 construct: Bought protein; also called recombinant CD33
T2 sequence (P20138 18-259 limits assumed): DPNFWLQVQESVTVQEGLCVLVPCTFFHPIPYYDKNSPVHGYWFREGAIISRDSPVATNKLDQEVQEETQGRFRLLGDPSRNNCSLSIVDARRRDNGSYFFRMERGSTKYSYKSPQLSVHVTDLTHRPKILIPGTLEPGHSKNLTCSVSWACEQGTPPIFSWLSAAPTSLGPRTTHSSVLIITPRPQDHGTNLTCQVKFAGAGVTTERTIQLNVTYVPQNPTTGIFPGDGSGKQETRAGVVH

Row | Binder | EC50
14 | B14 | 0.18 nM

biological target: T3, recombinant cynomolgus CD33 protein (NovoProtein) (cynomolgus); assay: ELISA, plate coated with recombinant CD33
T3 construct: Bought protein; also called cyno CD33
T3 sequence (chain, as listed by the source limits assumed): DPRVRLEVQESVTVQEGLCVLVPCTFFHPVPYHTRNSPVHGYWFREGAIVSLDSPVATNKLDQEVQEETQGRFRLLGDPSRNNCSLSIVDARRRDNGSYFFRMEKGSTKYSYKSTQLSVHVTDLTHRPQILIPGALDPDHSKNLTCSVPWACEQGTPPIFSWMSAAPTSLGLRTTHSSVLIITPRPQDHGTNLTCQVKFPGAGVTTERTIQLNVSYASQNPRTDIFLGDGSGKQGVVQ

Row | Binder | EC50 | Relative maximal binding (cyno/human) | Relative potency (human/cyno)
15 | B14 | 25.6 nM | 0.39 | 0.01

biological target: T1, human CD33 on primary human dendritic …; assay: cell-based or functional assay; remark: another data set of the same source

Row | Binder | Fold increase in potency compared to 6C7H5 | Receptor downregulation, (EC50) (pM) | Maximal reduction in CD33 (% remaining)
16 | B15 | 0.01 fold | 3640 pM | –
17 | B16 | 0.03 fold | 1230 pM | –
18 | B7 | 0.1 fold | 778 pM | 21.2 % remaining

biological target: T2, recombinant human CD33 protein (Sino …); assay: BLI (ForteBio), antibody on anti-human Fc sensor, CD33 10 nM
Method: Affinity parameters of the antibody variants for human CD33 were measured by BioLayer Interferometry in a ForteBio assay according to standard techniques (Estep et al. (2013) MAbs 5(2): 270-8) and were compared to those of the parental antibody (antibody 6C7H8) and the parental humanized antibody (antibody 6C71H5). Briefly, the antibodies were captured on anti-human Fc Biosensors (Pall ForteBio). Recombinant human CD33 (10 nM, Sino Biologicals) was then bound to the captured anti-CD33 surface (200 s association time, 1200 s dissociation time). Local fitting was used to extract association and dissociation rate constants (kₐ and kd, respectively) for each antibody. Apparent affinity constants (KD) were calculated from the ratio kd/kₐ.

Row | Binder | Kd | koff | kon
19 | B17 | 1.27 nM | 0.0059 s⁻¹ | 4.65e+06 M⁻¹ s⁻¹
20 | B15 | 3.88 nM | 0.0031 s⁻¹ | 801000 M⁻¹ s⁻¹
21 | B16 | 0.467 nM | 0.00113 s⁻¹ | 2.41e+06 M⁻¹ s⁻¹
22 | B18 | 0.238 nM | 0.00114 s⁻¹ | 4.79e+06 M⁻¹ s⁻¹
23 | B7 | 0.561 nM | 0.000823 s⁻¹ | 1.47e+06 M⁻¹ s⁻¹

biological target: T1, human CD33 on primary human dendritic …; assay: flow cytometry, primary human dendritic cells, 2 ug/mL

Row | Binder | binding relative to the parental antibodies
24 | B17 | < 60%
25 | B15 | < 60%
26 | B16 | < 60%
27 | B18 | < 60%

biological target: T1, human CD33 on primary human dendritic …; assay: cell-based or functional assay; remark: another data set of the same source

Row | Binder | Fold increase in potency compared to 6C7H5 | Receptor downregulation, (EC50) (pM)
28 | B14 | 1.2 fold | 35.4 pM
